Results from US20220389118A1 (Chugai, published 2022).

T1: soluble human IL-6 receptor (hsIL-6R) (human, UniProt P08887 20-357)
T1 sequence: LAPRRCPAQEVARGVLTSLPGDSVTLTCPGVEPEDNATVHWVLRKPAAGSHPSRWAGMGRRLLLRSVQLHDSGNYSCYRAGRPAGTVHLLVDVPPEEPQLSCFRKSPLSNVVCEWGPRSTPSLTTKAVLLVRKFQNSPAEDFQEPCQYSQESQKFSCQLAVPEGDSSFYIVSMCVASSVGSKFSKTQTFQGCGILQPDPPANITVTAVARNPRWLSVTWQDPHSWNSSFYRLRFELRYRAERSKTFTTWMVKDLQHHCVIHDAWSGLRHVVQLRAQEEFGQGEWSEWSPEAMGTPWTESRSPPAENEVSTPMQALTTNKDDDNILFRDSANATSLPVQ

T2: human FcγRIIa type H (allotype H131) extracellular domain with C-terminal His tag (human, UniProt P12318 34-217)
T2 construct: extracellular domain; also called FcγRIIaH; FcγRIIa H type; not shown: His tag at the C terminus
T2 sequence (looked up): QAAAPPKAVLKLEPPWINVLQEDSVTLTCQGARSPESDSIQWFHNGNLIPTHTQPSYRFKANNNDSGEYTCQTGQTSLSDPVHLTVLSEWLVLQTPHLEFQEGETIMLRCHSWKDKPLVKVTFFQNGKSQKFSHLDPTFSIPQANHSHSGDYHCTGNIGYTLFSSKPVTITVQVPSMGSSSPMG

T3: human FcγRIIb extracellular domain with C-terminal His tag (human, UniProt P31994 43-217)
T3 construct: extracellular domain; not shown: His tag at the C terminus
T3 sequence (looked up): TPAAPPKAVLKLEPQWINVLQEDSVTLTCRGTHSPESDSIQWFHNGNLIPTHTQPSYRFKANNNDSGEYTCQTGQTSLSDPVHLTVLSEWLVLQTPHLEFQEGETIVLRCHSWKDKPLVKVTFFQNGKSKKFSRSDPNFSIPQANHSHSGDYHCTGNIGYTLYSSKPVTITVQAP

T4: human FcγRIIb extracellular domain (human, UniProt P31994 43-217)
T4 construct: also called FcγIIB; not shown: His tag at the C terminus
T4 sequence: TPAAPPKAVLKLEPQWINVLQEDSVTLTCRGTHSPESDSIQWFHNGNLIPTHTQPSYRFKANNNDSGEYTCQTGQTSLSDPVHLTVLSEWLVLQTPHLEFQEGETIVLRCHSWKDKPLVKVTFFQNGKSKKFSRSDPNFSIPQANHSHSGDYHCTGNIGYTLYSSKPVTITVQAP

T5: human FcγRIIa type R extracellular domain (human, UniProt P12318 34-217)
T5 construct: also called FcγRIIaR; FcγRIIa(R); not shown: His tag at the C terminus
T5 chain: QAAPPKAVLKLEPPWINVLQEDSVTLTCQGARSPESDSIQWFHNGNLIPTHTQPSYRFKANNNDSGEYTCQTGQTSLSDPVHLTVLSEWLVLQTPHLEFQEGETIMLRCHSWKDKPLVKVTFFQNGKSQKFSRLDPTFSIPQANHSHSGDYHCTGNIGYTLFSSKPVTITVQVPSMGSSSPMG

T6: human FcγRIIa type H extracellular domain (human, UniProt P12318 34-217)
T6 construct: also called FcγRIIaH; FcγRIIa(H); not shown: His tag at the C terminus
T6 sequence: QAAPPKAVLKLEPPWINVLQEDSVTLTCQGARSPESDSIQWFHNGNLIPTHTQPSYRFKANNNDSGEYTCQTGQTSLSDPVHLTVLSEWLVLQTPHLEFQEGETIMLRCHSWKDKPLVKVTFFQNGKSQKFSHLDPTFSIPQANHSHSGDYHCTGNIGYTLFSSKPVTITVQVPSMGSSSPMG

T7: soluble human IL-6 receptor (human, UniProt P08887 20-357)
T7 construct: also called hsIL-6R
T7 sequence: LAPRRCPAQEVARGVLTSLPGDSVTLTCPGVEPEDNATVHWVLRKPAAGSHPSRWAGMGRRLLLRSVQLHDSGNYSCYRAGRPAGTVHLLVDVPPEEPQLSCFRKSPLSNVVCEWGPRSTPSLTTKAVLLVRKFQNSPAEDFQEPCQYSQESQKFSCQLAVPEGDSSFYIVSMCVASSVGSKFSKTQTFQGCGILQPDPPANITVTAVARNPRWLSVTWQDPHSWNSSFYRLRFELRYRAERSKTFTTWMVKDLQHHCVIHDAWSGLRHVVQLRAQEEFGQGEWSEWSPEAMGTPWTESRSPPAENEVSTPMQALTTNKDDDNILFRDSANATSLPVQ


Experiments:
[1] = target: T1, soluble human IL-6 receptor (hsIL-6R); test: SPR (Biacore T100), 3 µM CaCl2; estimated by Equation 3; summary table
Procedure: (§1) The kinetic analysis of the antigen-antibody reactions was conducted in solutions with 2 mM and 3 μM calcium ion concentrations, set as high and low calcium ion concentration conditions, respectively. The antibody of interest was captured on Sensor chip CM4 (GE Healthcare) on which an appropriate amount of Protein A (Invitrogen) was immobilized by an amine coupling method. Two buffers [10 mM ACES, 150 mM NaCl, 0.05% (w/v) Tween 20, and 2 mM CaCl₂) (pH 7.4) or 10 mM ACES, 150 mM NaCl, 0.05% (w/v) Tween 20, and 3 μmol/L CaCl₂ (pH 7.4)] were used as running buffers. These buffers were used for diluting human IL-6 receptor. All the measurements were conducted at 37° C.
(§2) Subsequently, the sensor chip was regenerated by injecting 10 mM glycine-HCl (pH 1.5) at a flow rate 30 μL/min for 30 seconds. Dissociation constants (KD) (M) were calculated from the sensorgrams obtained in the measurement, using a steady-state affinity model. Each parameter was calculated using the Biacore T100 Evaluation Software (GE Healthcare).

[2] = target: T1, soluble human IL-6 receptor (hsIL-6R); test: SPR (Biacore T100), 3 µM CaCl2, pH 7.4, 37 C; KD estimated from Req, Rmax, RI and C by Equation 3
Procedure: as §1, §2

[3] = target: T8, human FcγRIa extracellular domain with C-terminal His tag (human, UniProt P12314 16-292); test: SPR (Biacore), antibody captured, FcγR analyte
T8 construct: not shown: His tag at the C terminus
T8 sequence (P12314 16-292): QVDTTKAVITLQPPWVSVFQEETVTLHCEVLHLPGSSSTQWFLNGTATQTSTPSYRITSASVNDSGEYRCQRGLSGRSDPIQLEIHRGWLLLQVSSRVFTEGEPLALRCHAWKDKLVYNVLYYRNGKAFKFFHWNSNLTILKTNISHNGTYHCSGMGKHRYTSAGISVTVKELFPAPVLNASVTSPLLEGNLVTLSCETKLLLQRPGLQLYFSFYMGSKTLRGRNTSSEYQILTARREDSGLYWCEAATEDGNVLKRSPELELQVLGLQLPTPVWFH

[4] = target: T2, human FcγRIIa type H (allotype H131) …; test: SPR (Biacore), antibody captured, FcγR analyte
[5] = target: T3, human FcγRIIb extracellular domain with …; test: SPR (Biacore), antibody captured, FcγR analyte
[6] = target: T9, human FcγRIIIa type V (allotype V158) extracellular domain with C-terminal His tag (human, UniProt P08637 17-208); test: SPR (Biacore), antibody captured, FcγR analyte
T9 construct: extracellular domain; also called FcγRIIIaV; FcγRIIIa V type; not shown: His tag at the C terminus
T9 sequence (P08637 17-208 F176V): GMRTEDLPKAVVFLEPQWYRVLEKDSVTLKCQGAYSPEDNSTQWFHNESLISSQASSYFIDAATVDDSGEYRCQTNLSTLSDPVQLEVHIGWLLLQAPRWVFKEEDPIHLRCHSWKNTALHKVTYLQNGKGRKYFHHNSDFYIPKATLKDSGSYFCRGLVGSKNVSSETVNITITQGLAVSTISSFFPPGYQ

[7] = target: T3, human FcγRIIb extracellular domain with …; test: SPR (Biacore); KD ratio against IL6R-B3/IL6R-L
[8] = target: T4, human FcγRIIb extracellular domain; test: fold against IL6R-B3/IL6R-L, from SPR KD values
[9] = target: T5, human FcγRIIa type R extracellular …; test: fold against IL6R-B3/IL6R-L, from SPR KD values
[10] = target: T4, human FcγRIIb extracellular domain; test: ratio of the SPR KD for FcγRIIaH to the KD for FcγRIIb (selectivity)
[11] = target: T4, human FcγRIIb extracellular domain; test: ratio of the SPR KD for FcγRIIaR to the KD for FcγRIIb (selectivity)
[12] = target: T4, human FcγRIIb extracellular domain; test: SPR (Biacore), antibody captured on chip, FcγR extracellular domain as analyte, 25 C
[13] = target: T10, human FcγRIa extracellular domain (human, UniProt P12314 16-292); test: as above
T10 construct: also called CD64; not shown: His tag at the C terminus
T10 sequence (P12314 16-292): as the sequence (P12314 16-292) above

[14] = target: T5, human FcγRIIa type R extracellular …; test: as above
[15] = target: T6, human FcγRIIa type H extracellular …; test: as above
[16] = target: T7, soluble human IL-6 receptor; test: SPR (Biacore T100), about 300 RU of antibody captured on a Protein A/G chip (CM5), human IL-6 receptor as analyte, pH 7.4, 1.2 mM CaCl2, 37 °C
Procedure: These buffers were each used to dilute human IL-6 receptor. All measurements were carried out at 37° C.
Then, 10 mM glycine-HCl (pH 1.5) was injected at a flow rate of 30 μl/min for 30 seconds to regenerate the sensor chip.

| Kd [1] | Kd [2] | KD(IIb) of the parent polypeptide/KD(IIb) of the altered polypeptide [8] | KD(IIaR) of the parent polypeptide/KD(IIaR) of the altered polypeptide [9] | KD(IIaH)/KD(IIb) [10] | KD(IIaR)/KD(IIb) [11] | Kd [12] | Kd [13] | Kd [14] | Kd [15] | Binder | other results |
| --- | --- | --- | --- | --- | --- | --- | --- | --- | --- | --- | --- |
| ≥ 31000 nM | ~31000 nM | – | – | – | – | – | – | – | – | 6RL#9-IgG1 (antibody, V domains shown) VH: QVQLVQSGAEVKKPGASVKVSCKASGYTFTSYYMHWVRQAPGQGLEWMGIINPSGGSTSYAQKFQGRVTMTRDTSTSTVYMELSSLRSEDTAVYYCARDDPGGGEYYFDYWGQGTLVTVSS VL: QSVLTQPPSVSGAPGQRVTISCTGSRSNMGAGYDVHWYQLLPGAAPKLLISHNTHRPSGVPDRFSGSKSGASASLAITGLQAEDEADYYCQSHDSSLSAVVFGGGTKLTVLS | – |
| – | – | – | – | – | – | – | – | – | – | IL6R-BP198/IL6R-L (antibody, human IgG1, kappa, copies: 2 + 2) heavy: QVQLQESGPGLVKPSETLSLTCAVSGHSISHDHAWSWVRQPPGEGLEWIGFISYSGITNYNPSLQGRVTISRDNSKNTLYLQMNSLRAEDTAVYYCARSLARTTAMDYWGEGTLVTVSSASTKGPSVFPLAPSSKSTSGGTAALGCLVKDYFPEPVTVSWNSGALTSGVHTFPAVLQSSGLYSLSSVVTVPSSSLGTQTYICNVNHKPSNTKVDKKVEPKSCDKTHTCPPCPAPDYLGGDSVFLFPPKPKDTLMISRTPEVTCVVVDVSDEDGEVKFNWYVDGVEVHNAKTKPREEQYNSTYRVVSVLTVLHQDWLNGKEYKCKVSNAALPKPIEKTISKAKGQPREPQVYTLPPSRDELTKNQVSLTCLVKGFYPSDIAVEWESNGQPENNYKTTPPVLDSDGSFFLYSKLTVDKSRWQQGNVFSCSVMHEALHNHYTQESLSLSP light: not shown | Kd [3]: 11 nM; Kd [4]: 20000 nM; Kd [5]: 200 nM; Kd [6]: 44000 nM; KD(IIb) of parent polypeptide/KD(IIb) of altered polypeptide [7]: 15.7 |
| – | – | 196 | 2.4 | 525 | 29.1 | 16 nM | 12 nM | 460 nM | 8300 nM | IL6R-BP563/IL6R-L (antibody, human IgG1, kappa, copies: 2 + 2) heavy: QVQLQESGPGLVKPSETLSLTCAVSGHSISHDHAWSWVRQPPGEGLEWIGFISYSGITNYNPSLQGRVTISRDNSKNTLYLQMNSLRAEDTAVYYCARSLARTTAMDYWGEGTLVTVSSASTKGPSVFPLAPSSKSTSGGTAALGCLVKDYFPEPVTVSWNSGALTSGVHTFPAVLQSSGLYSLSSVVTVPSSSLGTQTYICNVNHKPSNTKVDKKVEPKSCDKTHTCPPCPAPDLLGDDSVFLFPPKPKDTLMISRTPEVTCVVVDVSEEDGDVKFNWYVDGVEVHNAKTKPREEQDNSTYRVVSVLTVLHQDWLNGKEYKCKVSNKALPRPIEKTISKAKGQPREPQVYTLPPSRDELTKNQVSLTCLVKGFYPSDIAVEWESNGQPENNYKTTPPVLDSDGSFFLYSKLTVDKSRWQQGNVFSCSVMHEALHNHYTQESLSLSP light: not shown | – |
| – | – | 565 | 4.8 | 856 | 41.5 | 5.5 nM | 2.4 nM | 230 nM | 4700 nM | IL6R-BP565/IL6R-L (antibody, human IgG1, kappa, copies: 2 + 2) heavy: QVQLQESGPGLVKPSETLSLTCAVSGHSISHDHAWSWVRQPPGEGLEWIGFISYSGITNYNPSLQGRVTISRDNSKNTLYLQMNSLRAEDTAVYYCARSLARTTAMDYWGEGTLVTVSSASTKGPSVFPLAPSSKSTSGGTAALGCLVKDYFPEPVTVSWNSGALTSGVHTFPAVLQSSGLYSLSSVVTVPSSSLGTQTYICNVNHKPSNTKVDKKVEPKSCDKTHTCPPCPAPDLLGDDSVFLFPPKPKDTLMISRTPEVTCVVVDVAEEDGEVKFNWYVDGVEVHNAKTKPREEQDNSTYRVVSVLTVLHQDWLNGKEYKCKVSNKALPRPIEKTISKAKGQPREPQVYTLPPSRDELTKNQVSLTCLVKGFYPSDIAVEWESNGQPENNYKTTPPVLDSDGSFFLYSKLTVDKSRWQQGNVFSCSVMHEALHNHYTQESLSLSP light: not shown | – |
| – | – | – | – | – | – | – | – | – | – | 6RpH#02 (antibody, human IgG1, kappa, V domains shown) VH: QVQLVQSGAEVKKPGSSVKVSCKASGGTFSSYAISWVRQAPGQGLEWMGGIIPIFGTANYAQKFQGRVTITADESTSTAYMELSSLRSEDTAVYYCMINGVWEGGMDVWGQGTTVTVSS VL: DIQMTQSPSSLSASVGDRVTITCRASQSIHSHLNWYQQKPGKAPKLLIYHASKLQSGVPSRFSGSGSGTDFTLTISSLQPEDFATYYCQQHGNSPLTFGQGTKVEIKR | binding result [16]: binds |
| ≥ 34000 nM | ~34000 nM | – | – | – | – | – | – | – | – | FH4-IgG1 (antibody, V domains shown) VH: QVQLVQSGAEVKKPGSSVKVSCKASGGTFSSYAISWVRQAPGQGLEWMGGIIPIFGTANYAQKFQGRVTITADESTSTAYMELSSLRSEDTAVYYCARERDYYDSSGYYDAFDIWGQGTMVTVSS VL: ETTVTQSPSFLSASVGDRVTITCITTTDIDDDMNWFQQEPGKAPKLLISEGNILRPGVPSRFSSSGYGTDFTLTISKLQPEDFATYYCLQSDNLPFTFGQGTKLEIKR | – |
